Usually Kd stands for a measure of binding affinity in units of concentration.

Assay [1] concerns the target XRCC4pSpT-12 none (pSer232; pThr233) (UniProt Q13426). Nature of the assay: 1D 31P NMR pH titration of the free phosphopeptide (600 MHz). As to conditions: pH 4.0-8.5, 35°C, no added NaCl (50 mM sodium acetate, 50 mM sodium cacodylate).
Assay [2] addresses XRCC1pSpT-9 none (pSer518; pThr519) (UniProt P18887). The description is as above. As to conditions: pH 4.0-8.5, 35°C, no added NaCl (50 mM sodium acetate, 50 mM sodium cacodylate).
Assay [3] deals with XRCC1pSpT-18 (unlabelled, NMR samples) none (pSer518; pThr519) (UniProt P18887). Nature of the assay: 1H,15N-HSQC titration with 1H lineshape simulation (500 MHz). The note with it: pH 7.4, 35°C, 150 mM NaCl, 25 mM HEPES, 25 mM MES.
The next assay deals with XRCC1 (Homo sapiens) (UniProt P18887). Nature of the assay: fluorescence. The note with it: cited from earlier work.
Assay [4] addresses XRCC1 tetraphosphorylated peptide (Homo sapiens) (UniProt P18887). The note with it: cited from earlier work.

XRCC4pSpT-12 none (pSer232; pThr233), sequence (Q13426 whole entry): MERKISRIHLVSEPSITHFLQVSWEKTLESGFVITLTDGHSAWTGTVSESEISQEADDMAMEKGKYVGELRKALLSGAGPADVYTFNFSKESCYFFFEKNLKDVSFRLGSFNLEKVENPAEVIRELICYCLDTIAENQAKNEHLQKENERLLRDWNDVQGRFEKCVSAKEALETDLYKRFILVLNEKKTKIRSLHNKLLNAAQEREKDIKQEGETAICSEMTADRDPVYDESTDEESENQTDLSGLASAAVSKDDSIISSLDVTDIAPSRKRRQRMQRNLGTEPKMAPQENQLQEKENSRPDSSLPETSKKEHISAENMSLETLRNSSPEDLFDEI
XRCC1pSpT-9 none (pSer518; pThr519), sequence (P18887 whole entry): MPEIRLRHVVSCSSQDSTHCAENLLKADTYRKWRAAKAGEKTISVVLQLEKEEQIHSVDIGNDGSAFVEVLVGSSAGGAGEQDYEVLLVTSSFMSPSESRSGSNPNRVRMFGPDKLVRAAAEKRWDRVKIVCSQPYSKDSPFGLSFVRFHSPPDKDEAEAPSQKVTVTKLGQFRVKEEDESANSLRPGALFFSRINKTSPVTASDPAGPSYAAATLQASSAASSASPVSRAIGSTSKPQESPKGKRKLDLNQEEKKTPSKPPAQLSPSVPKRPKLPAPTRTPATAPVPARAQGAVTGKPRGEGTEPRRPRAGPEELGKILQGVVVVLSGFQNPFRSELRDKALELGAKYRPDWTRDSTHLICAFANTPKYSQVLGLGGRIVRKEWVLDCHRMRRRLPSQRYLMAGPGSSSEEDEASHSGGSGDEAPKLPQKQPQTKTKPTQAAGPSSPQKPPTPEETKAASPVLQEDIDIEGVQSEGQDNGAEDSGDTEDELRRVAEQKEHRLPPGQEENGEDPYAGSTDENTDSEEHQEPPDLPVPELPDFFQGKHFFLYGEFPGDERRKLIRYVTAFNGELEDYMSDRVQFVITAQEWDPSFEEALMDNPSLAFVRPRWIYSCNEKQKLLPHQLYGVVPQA
XRCC1pSpT-18 (unlabelled, NMR samples) none (pSer518; pThr519), sequence (P18887 whole entry): as above
XRCC1 (Homo sapiens), sequence (P18887 whole entry): as above
XRCC1 tetraphosphorylated peptide (Homo sapiens), sequence (P18887 whole entry): as above

In assay [1], APLF FHA domain returned a pK, pSer232 phosphate of XRCC4pSpT-12 of 6.9 pH units and a pK, pThr233 phosphate of XRCC4pSpT-12 of 7.22 pH units. Besides, in assay [2], the pK, pSer518 phosphate of XRCC1pSpT-9 stood at 6.56 pH units and the pK, pThr519 phosphate of XRCC1pSpT-9 stood at 6.86 pH units.
With U-[15N] APLF FHA domain, the “τB (lifetime of the protein-peptide complex)” value in assay [3] is on record as 0.9 ms.
Consider PNKP FHA (from UniProt Q96T60), for which the equilibrium dissociation constant (Kd) with XRCC1 (Homo sapiens) was 3.5 nM; in assay [4], 140 nM.
